In KR20150077749A (dated 2015):

Experiments:
[1] = target: T1, KRS (Lysyl-tRNA synthetase), purified recombinant antigen (UniProt Q15046 1-597, limits assumed); assay: Luminex multiplex bead assay, antigen coupled to beads, anti-HA-biotin / SA-PE detection
T1 construct: also called 리실-tRNA 합성효소

[2] = target: T2, AIMP1 (Aminoacyl-tRNA-synthetase-interacting multifunctional protein 1), purified recombinant antigen (UniProt Q12904 1-312, limits assumed); assay: as above
T2 construct: also called AIMP1(p43); p43
T2 sequence (looked up): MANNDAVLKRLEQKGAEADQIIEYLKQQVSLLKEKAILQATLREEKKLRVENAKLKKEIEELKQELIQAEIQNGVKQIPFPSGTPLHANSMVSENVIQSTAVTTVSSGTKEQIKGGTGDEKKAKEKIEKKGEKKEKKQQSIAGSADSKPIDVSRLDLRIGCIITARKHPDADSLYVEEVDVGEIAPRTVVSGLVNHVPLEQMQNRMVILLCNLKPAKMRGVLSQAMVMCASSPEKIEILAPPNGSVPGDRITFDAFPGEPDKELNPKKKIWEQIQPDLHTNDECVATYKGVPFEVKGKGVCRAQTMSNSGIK

[3] = target: T3, HRS (Histidyl-tRNA synthetase), purified recombinant antigen (UniProt P12081 1-509, limits assumed); assay: as above
T3 construct: also called 히스티딜-tRNA 합성효소
T3 sequence (looked up): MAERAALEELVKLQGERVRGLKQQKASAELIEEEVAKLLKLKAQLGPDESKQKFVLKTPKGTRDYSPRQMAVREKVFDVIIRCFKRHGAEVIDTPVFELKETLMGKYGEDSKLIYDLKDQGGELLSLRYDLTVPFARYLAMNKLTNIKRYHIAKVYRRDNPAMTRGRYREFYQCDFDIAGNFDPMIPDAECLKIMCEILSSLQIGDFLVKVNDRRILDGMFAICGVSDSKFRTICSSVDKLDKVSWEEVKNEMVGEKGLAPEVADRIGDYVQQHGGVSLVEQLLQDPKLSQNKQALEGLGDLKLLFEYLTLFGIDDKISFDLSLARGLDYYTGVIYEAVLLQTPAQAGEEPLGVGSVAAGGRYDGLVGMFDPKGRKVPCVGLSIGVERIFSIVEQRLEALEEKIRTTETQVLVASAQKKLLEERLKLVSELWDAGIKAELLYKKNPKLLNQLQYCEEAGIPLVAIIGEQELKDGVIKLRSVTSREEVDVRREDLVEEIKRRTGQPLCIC

[4] = target: T4, NRS (Asparaginyl-tRNA synthetase), purified recombinant antigen (UniProt O43776 1-548, limits assumed); assay: as above
T4 construct: also called 아스파라기닐딜-tRNA 합성효소
T4 sequence (looked up): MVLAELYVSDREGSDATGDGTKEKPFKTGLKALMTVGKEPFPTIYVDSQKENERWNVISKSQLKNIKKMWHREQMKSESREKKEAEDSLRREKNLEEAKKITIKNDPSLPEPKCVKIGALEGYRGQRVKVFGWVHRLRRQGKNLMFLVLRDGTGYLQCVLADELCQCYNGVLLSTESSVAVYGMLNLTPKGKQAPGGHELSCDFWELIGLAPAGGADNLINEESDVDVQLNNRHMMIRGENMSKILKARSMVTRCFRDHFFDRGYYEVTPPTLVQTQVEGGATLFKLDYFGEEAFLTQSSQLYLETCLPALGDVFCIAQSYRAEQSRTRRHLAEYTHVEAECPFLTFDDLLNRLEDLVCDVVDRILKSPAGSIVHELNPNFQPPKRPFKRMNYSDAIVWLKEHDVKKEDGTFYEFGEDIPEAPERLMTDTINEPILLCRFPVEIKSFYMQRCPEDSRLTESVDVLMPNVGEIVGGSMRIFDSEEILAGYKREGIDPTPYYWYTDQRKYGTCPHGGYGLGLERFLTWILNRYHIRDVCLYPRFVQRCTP

[5] = target: T5, WRS (Tryptophanyl-tRNA synthetase), purified recombinant antigen (UniProt P23381 1-471, limits assumed); assay: as above
T5 construct: also called 트립토파닐-tRNA 합성효소
T5 sequence (looked up): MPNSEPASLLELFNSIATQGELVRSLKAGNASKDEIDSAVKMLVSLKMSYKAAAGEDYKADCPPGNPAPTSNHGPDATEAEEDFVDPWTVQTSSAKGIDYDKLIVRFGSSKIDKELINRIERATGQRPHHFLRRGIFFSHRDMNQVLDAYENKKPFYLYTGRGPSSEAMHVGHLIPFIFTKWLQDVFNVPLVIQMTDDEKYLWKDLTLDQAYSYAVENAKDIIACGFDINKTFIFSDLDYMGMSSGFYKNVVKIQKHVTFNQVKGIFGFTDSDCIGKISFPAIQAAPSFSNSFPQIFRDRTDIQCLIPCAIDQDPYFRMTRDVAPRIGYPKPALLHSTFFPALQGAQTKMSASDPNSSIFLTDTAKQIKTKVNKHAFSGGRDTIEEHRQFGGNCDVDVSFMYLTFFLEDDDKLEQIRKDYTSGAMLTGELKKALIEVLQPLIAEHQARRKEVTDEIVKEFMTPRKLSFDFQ

[6] = target: T6, YRS (Tyrosyl-tRNA synthetase), purified recombinant antigen (UniProt P54577 1-528, limits assumed); assay: as above
T6 construct: also called 타이로실-tRNA 합성효소
T6 sequence (looked up): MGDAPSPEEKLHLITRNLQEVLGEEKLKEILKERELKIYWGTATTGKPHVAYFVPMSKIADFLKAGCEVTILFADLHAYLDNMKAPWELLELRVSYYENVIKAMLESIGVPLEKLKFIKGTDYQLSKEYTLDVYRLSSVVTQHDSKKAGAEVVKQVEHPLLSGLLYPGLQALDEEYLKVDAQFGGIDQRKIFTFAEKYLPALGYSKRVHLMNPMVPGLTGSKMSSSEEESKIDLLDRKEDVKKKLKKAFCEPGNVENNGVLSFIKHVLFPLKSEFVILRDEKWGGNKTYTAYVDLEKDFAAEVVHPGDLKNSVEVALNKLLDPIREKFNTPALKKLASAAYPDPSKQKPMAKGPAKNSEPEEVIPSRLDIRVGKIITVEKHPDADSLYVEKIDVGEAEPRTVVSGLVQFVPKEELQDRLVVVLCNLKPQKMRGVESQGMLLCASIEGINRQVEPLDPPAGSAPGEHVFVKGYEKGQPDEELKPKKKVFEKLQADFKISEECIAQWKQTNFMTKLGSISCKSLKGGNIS

[7] = target: T7, SRS (Seryl-tRNA synthetase), purified recombinant antigen (UniProt P49591 1-514, limits assumed); assay: as above
T7 construct: also called 세릴-tRNA 합성효소
T7 sequence (P49591 whole entry): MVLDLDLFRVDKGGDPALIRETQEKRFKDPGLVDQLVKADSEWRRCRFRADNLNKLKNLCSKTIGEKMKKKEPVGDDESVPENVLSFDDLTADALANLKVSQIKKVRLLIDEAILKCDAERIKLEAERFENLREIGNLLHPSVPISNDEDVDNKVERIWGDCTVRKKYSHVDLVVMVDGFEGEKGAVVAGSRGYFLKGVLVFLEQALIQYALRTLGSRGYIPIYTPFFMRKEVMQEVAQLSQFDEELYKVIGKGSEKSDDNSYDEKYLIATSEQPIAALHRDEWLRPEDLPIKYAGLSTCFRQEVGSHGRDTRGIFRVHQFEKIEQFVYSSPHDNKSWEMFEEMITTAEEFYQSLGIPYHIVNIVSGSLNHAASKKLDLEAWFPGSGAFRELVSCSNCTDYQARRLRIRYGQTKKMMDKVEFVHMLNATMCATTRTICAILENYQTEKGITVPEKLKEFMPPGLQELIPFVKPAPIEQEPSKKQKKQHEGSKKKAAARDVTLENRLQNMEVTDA

[8] = target: T8, GRS expressed natively in human cells (HeLa cell lysate) (human, UniProt P41250 55-739, limits assumed); assay: western blot
T8 construct: Target of the western blot; also called human 세포에서 원래 발현된 GRS
T8 sequence (looked up): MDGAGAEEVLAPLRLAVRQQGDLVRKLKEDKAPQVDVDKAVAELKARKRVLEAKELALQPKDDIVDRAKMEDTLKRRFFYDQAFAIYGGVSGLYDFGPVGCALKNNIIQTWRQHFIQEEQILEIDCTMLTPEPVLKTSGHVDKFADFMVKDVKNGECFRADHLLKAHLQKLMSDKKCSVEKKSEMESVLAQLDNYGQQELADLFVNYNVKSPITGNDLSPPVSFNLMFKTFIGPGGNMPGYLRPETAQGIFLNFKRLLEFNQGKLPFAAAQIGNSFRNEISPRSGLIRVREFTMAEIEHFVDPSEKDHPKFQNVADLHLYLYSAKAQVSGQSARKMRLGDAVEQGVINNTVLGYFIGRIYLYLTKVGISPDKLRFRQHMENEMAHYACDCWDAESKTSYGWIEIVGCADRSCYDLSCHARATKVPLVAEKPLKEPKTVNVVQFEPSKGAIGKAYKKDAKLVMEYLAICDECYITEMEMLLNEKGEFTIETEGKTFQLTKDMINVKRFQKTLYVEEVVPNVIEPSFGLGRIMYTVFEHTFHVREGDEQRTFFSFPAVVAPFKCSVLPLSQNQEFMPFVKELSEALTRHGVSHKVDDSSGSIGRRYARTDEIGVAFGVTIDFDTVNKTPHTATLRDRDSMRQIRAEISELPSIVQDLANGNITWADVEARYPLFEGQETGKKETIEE

T1 sequence (Q15046 whole entry): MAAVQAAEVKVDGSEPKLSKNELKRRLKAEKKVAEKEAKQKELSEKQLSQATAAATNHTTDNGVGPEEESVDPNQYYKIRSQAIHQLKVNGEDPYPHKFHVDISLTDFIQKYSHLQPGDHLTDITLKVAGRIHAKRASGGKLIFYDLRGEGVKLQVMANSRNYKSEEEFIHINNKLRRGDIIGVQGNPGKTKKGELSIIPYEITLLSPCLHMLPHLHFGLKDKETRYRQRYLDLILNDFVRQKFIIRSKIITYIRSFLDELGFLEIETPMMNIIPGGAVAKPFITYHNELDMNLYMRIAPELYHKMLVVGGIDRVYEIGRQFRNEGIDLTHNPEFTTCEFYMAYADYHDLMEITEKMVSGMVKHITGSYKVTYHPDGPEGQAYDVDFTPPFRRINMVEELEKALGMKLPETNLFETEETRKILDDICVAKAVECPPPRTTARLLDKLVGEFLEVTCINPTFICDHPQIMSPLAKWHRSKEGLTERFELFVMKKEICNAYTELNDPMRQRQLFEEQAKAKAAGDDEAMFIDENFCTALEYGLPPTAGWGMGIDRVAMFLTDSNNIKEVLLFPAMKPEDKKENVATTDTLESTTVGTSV

B1: anti-GRS scFv, SEQ ID NO 41 (antibody iii) (scFv)
scFv: EVQLLESGGGLVQPGGSLRLSCAASGFTFSNYDMSWVRQAPGKGLEWVSWIYSNGSSTYYADSVKGRFTISRDNSKNTLYLQMNSLRAEDTAVYYCARITCMFDYWGQGTLVTVSSGGGGSGGGGSGGGGSQSVLTQPPSASGTPGQRVTISCSGSSSNIGSNYVTWYQQLPGTAPKLLIYADSHRPSGVPDRFSGSKSGTSASLAISGLRSEDEADYYCGSWDYSLNGYVFGGGTKLTVL
notes: One of the three scFvs selected by phage display, expressed from pComb3X in the E. coli periplasm; His and HA tags were used for purification and detection; also called 본 발명의 항체; 항 GRS scFv 항체
B1: no binding [1]; no binding [2]; no binding [3]. B1: no binding [4]; no binding [5]; no binding [6]. B1: no binding [7]; binds [8].

B2: anti-GRS scFv, SEQ ID NO 27 (antibody ii) (scFv)
scFv: EVQLLESGGGLVQPGGSLRLSCAASGFTFSGYDMSWVRQAPGKGLEWVSAIYSDSGSTYYADSVKGRFTISRDNSKNTLYLQMNSLRAEDTAVYYCARNTALFDYWGQGTLVTVSSGGGGSGGGGSGGGGSQSVLTQPPSASGTPGQRVTISCSGSSSNIGSNYVTWYQQLPGTAPKLLIYANNHRPSGVPDRFSGSKSGTSASLAISGLRSEDEADYYCGAWDASLSGYVFGGGTKLTVL
notes: as for B1
B2: no binding [1]; no binding [2]; no binding [3]. B2: no binding [4]; no binding [5]; no binding [6]. B2: no binding [7]; binds [8].

B3: anti-GRS scFv, SEQ ID NO 13 (antibody i) (scFv)
scFv: EVQLLESGGGLVQPGGSLRLSCAASGFTFSDYDMSWVRQAPGKGLEWVSAISPDDGSKYYADSVKGRFTISRDNSKNTLYLQMNSLRAEDTAVYYCARTTWLFDYWGQGTLVTVSSGGGGSGGGGSGGGGSQSVLTQPPSASGTPGQRVTISCTGSSSNIGNNYVNWYQQLPGTAPKLLIYADSHRPSGVPDRFSGSKSGTSASLAISGLRSEDEADYYCGAWDSSLSGYVFGGGTKLTVL
notes: One of the three scFvs selected by phage display (human VH3-23/VL1g framework), expressed from pComb3X in the E. coli periplasm; It was purified on Ni-NTA and detected with anti-HA, so it carries His and HA tags; Every result written here is told alike for all three scFvs; also called 본 발명의 항체; 항 GRS scFv 항체
B3: no binding [1]; no binding [2]; no binding [3]. B3: no binding [4]; no binding [5]; no binding [6]. B3: no binding [7].
